In PMC8358021, “Structural basis of the complementary activity of two ketosynthases in aryl polyene biosynthesis” (Scientific Reports, 2021):

Legend:
[1] = target: T1, AbApeO-AbApeC heterodimer (ketosynthase-chain length factor complex of the aryl polyene biosynthesis gene … (Acinetobacter baumannii)); assay: ITC; 2.0 mM holo ACP1 or holo ACP2 injected (19 injections of 3 µl) into 0.1 mM AbApeO-AbApeC or AbApeR; 25 °C; 40 mM potassium phosphate pH 7.0; 2 mM 2-mercaptoethanol; conditions: both partners purified
T1 construct: ApeO, ketosynthase of the APE biosynthesis gene cluster, Acinetobacter baumannii (pathogenic strain, global clone 2); ApeC, chain length factor of the APE biosynthesis gene cluster, Acinetobacter baumannii (pathogenic strain, global clone 2); The His6 tag on AbApeO is said to be not cleavable; The complex was formed by co-expression and used as one molecule in ITC; also called ApeO-ApeC; …

[2] = target: T2, AbApeR (FabB-like homodimeric ketosynthase of the A. baumannii APE gene cluster) (Acinetobacter baumannii); assay: as above; conditions: both partners purified
T2 construct: ApeR, ketoacyl-ACP synthase I (FabB)-like ketosynthase of the APE biosynthesis gene cluster, Acinetobacter baumannii (pathogenic strain, global clone 2); not shown: His6, N-terminal, cleaved

B1: holo ACP2 (ApeF), acyl carrier protein 2 of the A. baumannii APE gene cluster (natural protein)
chain: MSNLADELKQMIIDVLALEDITIADIDTEAPLFGEGLGLDSIDALELGLALKKRYNIHLNAESDETKQHFKSIQSLVALVEAQQKS
modifications: 4'-phosphopantetheine (holo form)
- stoichiometry N [1]: 1.21
- Kd [2]: 41 µM
- stoichiometry N [2]: 0.71
